What was measured:
Assay in all cases: cross-linking; disulfide crosslinking: reduced proteins alone or mixed at 30 uM per monomer each, 1 h at 42°C, then dialysis against 50 mM Tris/HCl pH 7.4, 50 mM KCl, 1 mM MgCl2, 0.1 mM PMSF at 4, 15 or 37°C; non-reducing SDS PAGE
Conditions in all cases: both partners purified
[1] = target: T1, wild type HspB1 (human small heat shock protein HspB1) (human, UniProt P04792 1-205)
T1 construct: human small heat shock protein HspB1, wild type, cDNA in pET23b; also called WT HspB1; WT; source: E. coli BL21 (DE3) pLysS, purified (ammonium sulfate fractionation, HiTrap Q, Superdex 200)
T1 sequence (P04792 whole entry): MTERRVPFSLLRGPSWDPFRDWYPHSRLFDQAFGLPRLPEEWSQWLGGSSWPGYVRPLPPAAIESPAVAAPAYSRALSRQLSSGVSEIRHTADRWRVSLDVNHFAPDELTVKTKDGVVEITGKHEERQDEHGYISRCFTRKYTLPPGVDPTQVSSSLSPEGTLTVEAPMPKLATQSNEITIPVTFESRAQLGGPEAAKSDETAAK

P39L mutant of HspB1 = target: T2, P39L mutant of HspB1 (human, UniProt P04792 1-205, P39L)
T2 construct: human HspB1 with the disease-associated replacement P39L, in pET23b (NdeI/XhoI); Mutation occurs in patients with type II Charcot-Marie-Tooth disease or dHMN; source: E. coli BL21 (DE3) pLysS, purified (ammonium sulfate fractionation, HiTrap Q, Superdex 200)
T2 sequence (P04792 whole entry P39L): as the sequence (P04792 whole entry) above, with P39L counted along it

E41K mutant of HspB1 = target: T3, E41K mutant of HspB1 (human, UniProt P04792 1-205, E41K)
T3 construct: human HspB1 with the disease-associated replacement E41K, in pET23b (NdeI/XhoI); Mutation occurs in patients with distal hereditary motor neuropathy; source: E. coli BL21 (DE3) pLysS, purified (ammonium sulfate fractionation, HiTrap Q, Superdex 200)
T3 sequence (P04792 whole entry E41K): as the sequence (P04792 whole entry) above, with E41K counted along it

G34R mutant of HspB1 = target: T4, G34R mutant of HspB1 (human, UniProt P04792 1-205, G34R)
T4 construct: human HspB1 with the disease-associated replacement G34R, in pET23b (NdeI/XhoI); Mutation occurs in patients with distal hereditary motor neuropathy; source: E. coli BL21 (DE3) pLysS, purified (ammonium sulfate fractionation, HiTrap Q, Superdex 200)
T4 sequence (P04792 whole entry G34R): as the sequence (P04792 whole entry) above, with G34R counted along it

Measured: binding result

B1: double mutant of HspB6 containing the substitutions C46S/E116C (natural protein, human, UniProt O14558 1-160, looked up)
chain: MEIPVPVQPSWLRRASAPLPGLSAPGRLFDQRFGEGLLEAELAALSPTTLAPYYLRAPSVALPVAQVPTDPGHFSVLLDVKHFSPEEIAVKVVGEHVEVHARHEERPDEHGFVARCFHRRYRLPPGVDPAAVTSALSPEGVLSIQAAPASAQAPPPAAAK
notes: HspB6 lacking the natural Cys of the N-terminal domain and with a single Cys at the position homologous to Cys137 of HspB1; also called Cys mutant of HspB6; Cys-mutant of HspB6; source: expressed and purified as described earlier [36]
binds: [1] | P39L mutant of HspB1 | E41K mutant of HspB1 | G34R mutant of HspB1

Reference: paper PMC4429025, “Characterization of Mutants of Human Small Heat Shock Protein HspB1 Carrying Replacements in the N-Terminal Domain and Associated with Hereditary Motor Neuron Diseases” (PLoS ONE, 2015)
